Test results reported in the Immune Epitope Database (IEDB).

Legend:
HLA-C*05:01 = test: IEDB peptide-MHC binding, purified MHC/direct/fluorescence; filed as Kd, often an IC50 or EC50 that approximates it; ≥ and ≤ were set here for values at or beyond the usual limits of such assays
HLA-A*02:06 = test: IEDB peptide-MHC binding, purified MHC/competitive/radioactivity; filed as Kd, often an IC50 or EC50 that approximates it; ≥ and ≤ were set here for values at or beyond the usual limits of such assays
HLA-A*02:03 [1] = test: as above
HLA-A*02:02 = test: as above; settings: source organism: Vaccinia virus Copenhagen
HLA-A*02:01 [2] = test: IEDB peptide-MHC binding, purified MHC/competitive/fluorescence; filed as Kd, often an IC50 or EC50 that approximates it; ≥ and ≤ were set here for values at or beyond the usual limits of such assays
HLA-A*02:01 [3] = test: IEDB peptide-MHC binding, purified MHC/competitive/radioactivity; filed as Kd, often an IC50 or EC50 that approximates it; ≥ and ≤ were set here for values at or beyond the usual limits of such assays
HLA-A*02:17 = test: as above
HLA-B*08:01 [4] = test: as above; settings: source organism: Dengue virus 1 Brazil/97-11/1997
HLA-B*27:03 = test: IEDB peptide-MHC binding, purified MHC/competitive/fluorescence; filed as Kd, often an IC50 or EC50 that approximates it; ≥ and ≤ were set here for values at or beyond the usual limits of such assays
HLA-A*02:19 = test: as above
HLA-B*46:01 [5] = test: as above
HLA-B*57:01 [6] = test: as above
HLA-A*24:03 = test: as above
HLA-B*18:01 [7] = test: as above
HLA-A*02:12 = test: as above
HLA-B*51:01 = test: as above
HLA-B*39:01 = test: as above
HLA-A*26:01 [8] = test: as above
HLA-B*15:01 [9] = test: as above
HLA-A*02:03 [10] = test: as above; settings: source organism: Influenza A virus (A/swine/Italy/1513-1/1998(H1N1))
HLA-A*68:02 [11] = test: as above; settings: source organism: Influenza A virus (A/swine/Italy/1513-1/1998(H1N1))
HLA-A*31:01 [12] = test: as above; settings: source organism: Influenza A virus (A/swine/Italy/1513-1/1998(H1N1))
HLA-A*69:01 [13] = test: as above; settings: source organism: Influenza A virus (A/swine/Italy/1513-1/1998(H1N1))
HLA-B*15:17 [14] = test: as above; settings: source organism: Influenza A virus (A/swine/Italy/1513-1/1998(H1N1))
HLA-A*02:01 [15] = test: IEDB peptide-MHC binding, purified MHC/direct/fluorescence; filed as Kd, often an IC50 or EC50 that approximates it; ≥ and ≤ were set here for values at or beyond the usual limits of such assays; settings: source organism: Marburg virus - Musoke, Kenya, 1980
HLA-B*46:01 [16] = test: as above; settings: source organism: Marburg virus - Musoke, Kenya, 1980
HLA-B*57:01 [17] = test: as above; settings: source organism: Marburg virus - Musoke, Kenya, 1980
HLA-B*27:05 = test: as above; settings: source organism: Marburg virus - Musoke, Kenya, 1980
HLA-B*08:01 [18] = test: as above; settings: source organism: Ravn virus - Ravn, Kenya, 1987
HLA-B*40:01 = test: as above; settings: source organism: Marburg virus - Musoke, Kenya, 1980
HLA-A*11:01 = test: as above; settings: source organism: Marburg virus - Musoke, Kenya, 1980
HLA-B*18:01 [19] = test: as above; settings: source organism: Marburg virus - Musoke, Kenya, 1980
HLA-A*26:02 = test: as above; settings: source organism: Ravn virus - Ravn, Kenya, 1987
HLA-A*26:01 [20] = test: as above; settings: source organism: Ravn virus - Ravn, Kenya, 1987
HLA-A*01:01 = test: as above; settings: source organism: Marburg virus - Musoke, Kenya, 1980
HLA-B*07:02 = test: as above; settings: source organism: Marburg virus - Musoke, Kenya, 1980
HLA-B*48:01 = test: as above; settings: source organism: Marburg virus - Musoke, Kenya, 1980
HLA-A*03:01 [21] = test: as above; settings: source organism: Marburg virus - Musoke, Kenya, 1980
HLA-B*15:01 [22] = test: as above; settings: source organism: Marburg virus - Musoke, Kenya, 1980
HLA-B*08:03 = test: as above; settings: source organism: Ravn virus - Ravn, Kenya, 1987
HLA-A*68:02 [23] = test: as above; settings: source organism: Marburg virus - Musoke, Kenya, 1980
HLA-B*58:01 = test: as above; settings: source organism: Marburg virus - Musoke, Kenya, 1980
HLA-A*31:01 [24] = test: as above; settings: source organism: Marburg virus - Musoke, Kenya, 1980
HLA-A*69:01 [25] = test: as above; settings: source organism: Marburg virus - Musoke, Kenya, 1980
HLA-B*15:17 [26] = test: as above; settings: source organism: Marburg virus - Musoke, Kenya, 1980
HLA-A*29:02 = test: IEDB peptide-MHC binding, purified MHC/competitive/fluorescence; filed as Kd, often an IC50 or EC50 that approximates it; ≥ and ≤ were set here for values at or beyond the usual limits of such assays; settings: source organism: Vibrio parahaemolyticus K5030
HLA-A*03:01 [27] = test: as above; settings: source organism: Vibrio parahaemolyticus K5030
HLA-A*02:11 = test: as above; settings: source organism: Vibrio parahaemolyticus K5030
[28] = source organism: Vaccinia virus Copenhagen
[29] = source organism: Dengue virus 4 Philippines/H241/1956
[30] = source organism: Dengue virus 1 Singapore/S275/1990
[31] = source organism: Influenza A virus (A/swine/Italy/1513-1/1998(H1N1))
[32] = source organism: Vibrio parahaemolyticus K5030

## FPSVFINPI
HLA-C*05:01; [28]
  Kd: ≥ 20 µM

## FVDTMSIYI
HLA-A*02:06; [28]
  Kd: 0.0161 µM
HLA-A*02:03 [1]; [28]
  Kd: 0.37 µM
HLA-A*02:02
  Kd: 0.0207 µM
HLA-C*05:01; source organism: Variola virus
  Kd: 0.002 µM
HLA-A*02:01 [2]; source organism: Variola virus
  Kd: 0.0004 µM

## GLYPLAIPV
HLA-A*02:01 [3]; [29]
  Kd: 0.00106 µM
HLA-A*02:17; [29]
  Kd: 0.0538 µM
HLA-A*02:06; [29]
  Kd: 0.125 µM
HLA-A*02:03 [1]; [29]
  Kd: 0.00042 µM

## ILLMLVTPSM
HLA-A*02:01 [3]; [30]
  Kd: 0.102 µM
HLA-B*08:01 [4]
  Kd: 0.16 µM
HLA-A*02:17; [30]
  Kd: 1.11 µM

## MMWEINGPK
HLA-B*27:03; [31]
  Kd: ≥ 20 µM
HLA-A*02:19; [31]
  Kd: ≥ 20 µM
HLA-B*46:01 [5]; [31]
  Kd: ≥ 20 µM
HLA-B*57:01 [6]; [31]
  Kd: ≥ 20 µM
HLA-A*24:03; [31]
  Kd: ≥ 20 µM
HLA-B*18:01 [7]; [31]
  Kd: ≥ 20 µM
HLA-A*02:12; [31]
  Kd: ≥ 20 µM
HLA-B*51:01; [31]
  Kd: ≥ 20 µM
HLA-B*39:01; [31]
  Kd: ≥ 20 µM
HLA-A*26:01 [8]; [31]
  Kd: ≥ 20 µM
HLA-B*15:01 [9]; [31]
  Kd: ≥ 20 µM
HLA-A*02:03 [10]
  Kd: ≥ 20 µM
HLA-A*68:02 [11]
  Kd: ≥ 20 µM
HLA-A*31:01 [12]
  Kd: 0.0751 µM
HLA-A*69:01 [13]
  Kd: ≥ 20 µM
HLA-B*15:17 [14]
  Kd: ≥ 20 µM

## QVGIFLICK
HLA-A*02:01 [15]
  Kd: ≥ 20 µM
HLA-B*46:01 [16]
  Kd: ≥ 20 µM
HLA-B*57:01 [17]
  Kd: ≥ 20 µM
HLA-B*27:05
  Kd: ≥ 20 µM
HLA-B*08:01 [18]
  Kd: ≥ 20 µM
HLA-B*40:01
  Kd: ≥ 20 µM
HLA-A*11:01
  Kd: 2.8 µM
HLA-B*18:01 [19]
  Kd: ≥ 20 µM
HLA-A*26:02
  Kd: ≥ 20 µM
HLA-A*26:01 [20]
  Kd: ≥ 20 µM
HLA-A*01:01
  Kd: ≥ 20 µM
HLA-B*07:02
  Kd: ≥ 20 µM
HLA-B*48:01
  Kd: ≥ 20 µM
HLA-A*03:01 [21]
  Kd: ≥ 20 µM
HLA-B*15:01 [22]
  Kd: ≥ 20 µM
HLA-B*08:03
  Kd: ≥ 20 µM
HLA-A*68:02 [23]
  Kd: ≥ 20 µM
HLA-B*58:01
  Kd: ≥ 20 µM
HLA-A*31:01 [24]
  Kd: ≥ 20 µM
HLA-A*69:01 [25]
  Kd: ≥ 20 µM
HLA-B*15:17 [26]
  Kd: ≥ 20 µM

## WLGDVWQEK
HLA-B*27:03; [32]
  Kd: ≥ 20 µM
HLA-A*02:19; [32]
  Kd: ≥ 20 µM
HLA-A*29:02
  Kd: ≥ 20 µM
HLA-A*02:01 [2]; [32]
  Kd: ≥ 20 µM
HLA-B*46:01 [5]; [32]
  Kd: ≥ 20 µM
HLA-B*57:01 [6]; [32]
  Kd: ≥ 20 µM
HLA-A*24:03; [32]
  Kd: ≥ 20 µM
HLA-B*18:01 [7]; [32]
  Kd: ≥ 20 µM
HLA-A*02:12; [32]
  Kd: ≥ 20 µM
HLA-B*51:01; [32]
  Kd: ≥ 20 µM
HLA-B*39:01; [32]
  Kd: ≥ 20 µM
HLA-A*26:01 [8]; [32]
  Kd: ≥ 20 µM
HLA-A*03:01 [27]
  Kd: ≥ 20 µM
HLA-B*15:01 [9]; [32]
  Kd: ≥ 20 µM
HLA-A*02:11
  Kd: 0.0251 µM
